Substrate: Nc1ncnc2c1ncn2[C@@H]1O[C@H](COP(=O)(O)OP(=O)(O)OP(=O)(O)O)[C@@H](O)[C@H]1O
Assay: purified protein, by the assay type

B1: ALK (V1058-P1620) G1202R (Homo sapiens; G1202R) (protein)
chain: VYRRKHQELQAMQMELQSPEYKLSKLRTSTIMTDYNPNYCFAGKTSSISDLKEVPRKNITLIRGLGHGAFGEVYEGQVSGMPNDPSPLQVAVKTLPEVCSEQDELDFLMEALIISKFNHQNIVRCIGVSLQSLPRFILLELMAGRDLKSFLRETRPRPSQPSSLAMLDLLHVARDIACGCQYLEENHFIHRDIAARNCLLTCPGPGRVAKIGDFGMARDIYRASYYRKGGCAMLPVKWMPPEAFMEGIFTSKTDTWSFGVLLWEIFSLGYMPYPSKSNQEVLEFVTSGGRMDPPKNCPGPVYRIMTQCWQHQPEDRPNFAIILERIEYCTQDPDVINTALPIEYGPLVEEEEKVPVRPKDPEGVPPLLVSQQAKREEERSPAAPPPLPTTSSGKAAKKPTAAEISVRVPRGPAVEGGHVNMAFSQSNPPSELHKVHGSRNKPTSLWNPTYGSWFTEKPTKKNNPIAKKEPHDRGNLGLEGSCTVPPNVATGRLPGASLLLEPSSLTANMKEVPLFRLRHFPCGNVNYGYQQQGLPLEAATAPGAGHYEDTILKSKNSMNQPGP
other: ALK G1202R
  Km: 23 µM

B2: ALK (V1058-P1620) S1206Y (Homo sapiens; S1206Y) (protein)
chain: VYRRKHQELQAMQMELQSPEYKLSKLRTSTIMTDYNPNYCFAGKTSSISDLKEVPRKNITLIRGLGHGAFGEVYEGQVSGMPNDPSPLQVAVKTLPEVCSEQDELDFLMEALIISKFNHQNIVRCIGVSLQSLPRFILLELMAGGDLKYFLRETRPRPSQPSSLAMLDLLHVARDIACGCQYLEENHFIHRDIAARNCLLTCPGPGRVAKIGDFGMARDIYRASYYRKGGCAMLPVKWMPPEAFMEGIFTSKTDTWSFGVLLWEIFSLGYMPYPSKSNQEVLEFVTSGGRMDPPKNCPGPVYRIMTQCWQHQPEDRPNFAIILERIEYCTQDPDVINTALPIEYGPLVEEEEKVPVRPKDPEGVPPLLVSQQAKREEERSPAAPPPLPTTSSGKAAKKPTAAEISVRVPRGPAVEGGHVNMAFSQSNPPSELHKVHGSRNKPTSLWNPTYGSWFTEKPTKKNNPIAKKEPHDRGNLGLEGSCTVPPNVATGRLPGASLLLEPSSLTANMKEVPLFRLRHFPCGNVNYGYQQQGLPLEAATAPGAGHYEDTILKSKNSMNQPGP
other: ALK S1206Y
  Km: 20 µM
